Here are results for three molecules from US8101714B2, “Teleost derived antimicrobial polypeptides” (The University of Georgia Research Foundation, Inc., priority 2004, dated 2012).

One assay has as its system E. coli, DH5alpha strain. Description: Anti-microbial modified broth dilution assay with recombinant NCAMP-1. It counts as cell-based. Particulars: for MIC50 (MIC for 50% bactericidal activity): 2 h incubation, colony counts. As for the experimental part:
(§1) The recombinant protein was examined for anti-microbial activity by a modified broth dilution assay. NCAMP-1 activity was tested against Gram positive (Micrococcus luteus, Streptococcus iniae) and Gram negative (E. coli, DH5alpha strain) microorganisms. S. iniae was grown and tested for susceptibility in Todd-Hewitt broth (THB) at 30° C. E. coli and M. luteus were grown and tested at 37° C. in Mueller-Hinton broth (MHB). Overnight cultures were diluted into fresh media and grown at the indicated temperature for 3-6 h. Cultures were diluted to 5000 CFUs (colony forming units)/ml in 10 mM sodium phosphate buffer (NAPB), supplemented to 10% wvith either MHB or THB. The relationship between A620 and CFUs was previously determined in our laboratory for each bacteria. Fifty microliters of bacteria (5000 CFUs) were added to an equal volume of NCAMP-1 (or control protein) diluted in 10 mM NAPB to the indicated protein concentration. Assay tubes were incubated at the appropriate temperatures for 2 h with shaking. Colony counts were then determined by plating serial dilutions of test cultures on the appropriate media. Results are expressed as CFUs/ml.
For orientation: Dilution methods test growth across graded concentrations, often in twofold steps.

The test system of a further assay is GpC and CpG ODNs. Description: Southwestern (ODN) blot of recombinant NCAMP-1. It counts as binding. Particulars: Southwestern blotting, biotinylated ODNs, FIG. 13B. How it is done:
Biotinylated ODNs were used to identify potential. DNA binding proteins in NCC membrane lysate preparations and to evaluate the ODN binding of recombinant NCAMP-1. Membrane lysates were prepared as indicated above. Purified recombinant NCAMP-1 was mixed with SDS-PAGE sample buffer (reducing) prior to electrophoresis. […] Membranes were blocked in Superblock (Pierce, Rockford Ill.) blocking solution with 0.05% Tween-20. ODN's were diluted in Superblock and added to membranes (1 h, room temperature). Membranes were washed (3×) in TBS with 0.5% Tween-20 (TBST). Neutraviden-HRP (Pierce) diluted in Superblock (minimum dilution 1:50000) was added and incubated for 30 min at room temperature. Blots were washed (3×) in TBST and were developed with enhanced chemiluminiscence (SuperSignal® West Pico Pierce, Rockford, Ill.).

The subject of the next assay is Micrococcus luteus. Description: Anti-microbial assay, residual colony counts. It counts as cell-based. The following applies: M. luteus, 37 C, 2 h. How it is done:
as §1, with “Fifty microliters of bacteria (5000 CFUs) were added to an equal volume of NCAMP-1 (or control protein) diluted in 10 mM NAPB to the indicated protein concentration. Assay tubes were incubated at the appropriate temperatures for 2 h with shaking.” left out
M. luteus were killed by full length recombinant NCAMP-1. […] After 2 hours, the OD620 was measured. Using a previously determined relationship of OD620 0.1=1.2×10^7 CFUs/ml, bacteria was diluted to 10^5 CFUs/ml in sodium phosphate buffer (pH8) supplemented with 10% with MH broth (assay buffer). […] Serial dilutions of each sample were plated onto MH agar plates and residual colony counts were determined. […]

A further assay has as its system Streptococcus iniae. Description: Anti-microbial modified broth dilution assay with recombinant NCAMP-1. It counts as cell-based. The following applies: S. iniae. How it is done: as §1

On to “NCAMP-d2: truncated recombinant NCAMP-1, aa 1-60 of SEQ ID NO:3 (MSAQAEETAPEAAAPVQPSQPAAKKKGPASKAKPASAEKKNKKKKGKGPGKYSQLVINAI; listed as Ictalurus punctatus)”, for which, in the assay on E. coli, DH5alpha strain, the MIC50 concentration is 1.0 µM and the “MIC50 (MIC for 50% bactericidal activity)” value stood at 1.0 µM.

B1: NCAMP-d1: truncated recombinant NCAMP-1, aa 1-118 of SEQ ID NO:3 (protein, listed as Ictalurus punctatus)
chain: MSAQAEETAPEAAAPVQPSQPAAKKKGPASKAKPASAEKKNKKKKGKGPGKYSQLVINAIQTLGERNGSSLFKIYNEAKKVNWFDQQHGRVYLRYSIRALLQNDTLVQVKGLGANGSF
B1: in the assay on E. coli, DH5alpha strain, the MIC50 concentration was determined as 0.63 µM and the “MIC50 (MIC for 50% bactericidal activity)” value was 0.63 µM.

B2: NCAMP-1: NCC cationic antimicrobial protein-1 from channel catfish, 203 amino acids, SEQ ID NO:3; recombinant His-tagged form expressed in E. coli (protein, listed as Ictalurus punctatus)
chain: MSAQAEETAPEAAAPVQPSQPAAKKKGPASKAKPASAEKKNKKKKGKGPGKYSQLVINAIQTLGERNGSSLFKIYNEAKKVNWFDQQHGRVYLRYSIRALLQNDTLVQVKGLGANGSFKLNKKKFIPRTKKSSVKPRKTAKPTKKPAKKAAKKKKRVSGVKKATPPPEKTSKPKKADKSPAVSAKKASKPKKAKQTKKTAKKT
modifications: His tag
notes: recombinant His-tagged form expressed in E. coli
Turning to B2, the “ODN binding of recombinant protein” value in the assay with GpC and CpG ODNs was “bind to GpC (SEQ ID NO:11) and CpG (SEQ ID NO:7)”. Besides, the bactericidal activity result was “killed” with Micrococcus luteus; “killed” with Streptococcus iniae (FIG. 17); “killed” in the assay with E. coli, DH5alpha strain (FIG. 17). Besides, the “MIC50 (MIC for 50% bactericidal activity)” value with Streptococcus iniae (2 h incubation, colony counts) is 0.86 µM; in the assay on E. coli, DH5alpha strain it was 0.43 uM (SEQ ID NO: 3).
